The assay concerns the target T1, 125I-TyrA14 human insulin (human, 125I on TyrA14 (specific activity 2200 Ci/mmol)).
T1 construct: insulin A chain, human, cut product of proinsulin; insulin B chain, human, cut product of proinsulin; also called ^125I-HI; HI
The experiment in a line: radioligand binding; saturation binding of the 125I-labelled ligand (0.05-5 nM) to isolated ectodomain-mCherry (300 ng/well) immobilised through its HisTag on 96-well plates by nickel-NTA iBodies with biotin on neutravidin; otherwise as the whole-cell assay; one-site specific binding fit. Conditions: both partners purified.

B1: isolated ecto-IR-A Arg717Gln conjugated with mCherry (domain or fragment)
chain 1: HLYPGEVCPGMDIRNNLTRLHELENCSVIEGHLQILLMFKTRPEDFRDLSFPKLIMITDYLLLFRVYGLESLKDLFPNLTVIRGSRLFFNYALVIFEMVHLKELGLYNLMNITRGSVRIEKNNELCYLATIDWSRILDSVEDNYIVLNKDDNEECGDICPGTAKGKTNCPATVINGQFVERCWTHSHCQKVCPTICKSHGCTAEGLCCHSECLGNCSQPDDPTKCVACRNFYLDGRCVETCPPPYYHFQDWRCVNFSFCQDLHHKCKNSRRQGCHQYVIHNNKCIPECPSGYTMNSSNLLCTPCLGPCPKVCHLLEGEKTIDSVTSAQELRGCTVINGSLIINIRGGNNLAAELEANLGLIEEISGYLKIRRSYALVSLSFFRKLRLIRGETLEIGNYSFYALDNQNLRQLWDWSKHNLTITQGKLFFHYNPKLCLSEIHKMEEVSGTKGRQERNDIALKTNGDQASCENELLKFSYIRTSFDKILLRWEPYWPPDFRDLLGFMLFYKEAPYQNVTEFDGQDACGSNSWTVVDIDPPLRSNDPKSQNHPGWLMRGLKPWTQYAIFVKTLVTFSDERRTYGAKSDIIYVQTDATNPSVPLDPISVSNSSSQIILKWKPPSDPNGNITHYLVFWERQAEDSELFELDYCLKGLKLPSRTWSPPFESEDSQKHNQSEYEDSAGECCSCPKTDSQILKELEESSFRKTFEDYLHNVVFVPQPS
chain 2: SLGDVGNVTVAVPTVAAFPNTSSTSVPTSPEEHRPFEKVVNKESLVISGLRHFTGYRIELQACNQDTPEERCSVAAYVSARTMPEAKADDIVGPVTHEIFENNVVHLMWQEPKEPNGLIVLYEVSYRRYGDEELHLCVSRKHFALERGCRLRGLSPGNYSVRIRATSLAGNGSWTEPTYFYVTDYLDVPSNIAK
In turn, B1 returned a Kd of 0.27 nM.

As usually defined, the Kd is a measure of binding affinity in units of concentration. Read a low Kd as a tighter complex.

Values taken from publication PMC10645074, “Insulin receptor Arg717 and IGF-1 receptor Arg704 play a key role in ligand binding and in receptor activation” (Open Biology, 2023).
